One substance from patent US20240392024A1 can be followed below.

The target of this assay is human TNFR2 on the cell membrane (human) (UniProt P20333). The assay is described as follows: flow cytometry on human PBMC, CD3+ T cells.
human TNFR2 on the cell membrane (human), sequence (P20333 23-461): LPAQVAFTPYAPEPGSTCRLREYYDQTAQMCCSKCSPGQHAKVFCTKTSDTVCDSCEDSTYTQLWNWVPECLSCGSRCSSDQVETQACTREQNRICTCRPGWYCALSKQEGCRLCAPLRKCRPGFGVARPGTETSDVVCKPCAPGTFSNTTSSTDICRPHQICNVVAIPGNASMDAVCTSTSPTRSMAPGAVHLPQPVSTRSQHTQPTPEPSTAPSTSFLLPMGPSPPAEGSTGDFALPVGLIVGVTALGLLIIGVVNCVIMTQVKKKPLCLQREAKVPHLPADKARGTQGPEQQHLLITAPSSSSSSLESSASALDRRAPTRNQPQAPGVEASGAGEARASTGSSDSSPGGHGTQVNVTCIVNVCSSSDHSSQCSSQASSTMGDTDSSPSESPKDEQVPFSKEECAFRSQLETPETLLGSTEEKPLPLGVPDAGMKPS

For Isotype Ctrl (antibody), the percent of cells in the upper right quadrant (Q1-UR, CD3+ and anti-human IgG Fc+) stood at 5.48%.
